Where a SMILES comes first, the peptide text is derived from it. Where no end group is shown, it is not given here.
Tests used:
Format in all cases: physicochemical
[1] = Test Example 1: examination of peptide solubility in citrate/phosphate buffers; settings: for result (whether peptide drug substance was dissolved): room temperature 24 hours
Protocol: The solubility of a peptide drug substance (purity 95 w/w % or more, PPL) was examined for the peptides Asn-Val-Leu-His-Phe-Phe-Asn-Ala-Pro-Leu (SEQ ID NO: 1), Ala-Ser-Leu-Asp-Ser-Asp-Pro-Trp-Val (SEQ ID NO: 2), Lys-Leu-Lys-His-Tyr-Gly-Pro-Gly-Trp-Val (SEQ ID NO: 3), and Leu-Leu-Gln-Ala-Glu-Ala-Pro-Arg-Leu (SEQ ID NO: 4), respectively. First, 10 mM citrate buffers (Citrate) or phosphate buffers (Phosphate) containing 270 mM trehalose from pH 3.0 to pH 8.0 were prepared and the peptide drug substance was added to each buffer so as to provide a predetermined peptide concentration. The mixture was stirred and allowed to stand at room temperature for 24 hours to evaluate whether the peptide drug substance was dissolved.

[2] = Test Example 3: peptide stability in solution (HPLC); settings: for % difference vs T = 0 / Conc.: buffers as Table 3; for T0 Conc.: time of preparation, buffers: SEQ1 pH 3.5 50 mM Gly-HCl + 200 mM trehalose, SEQ2 pH 4.0, SEQ3 pH 7.0, SEQ4 pH 6.0 in 10 mM citrate + 270 mM trehalose
Protocol: Based on the results of Test Example 1 and Test Example 2, the stability of the peptides was examined. First, peptide drug substances (purity 95 w/w % or more, PPL) were dissolved in the buffers shown in Table 3, respectively, to prepare peptide solutions of the peptides of SEQ ID NOs: 1 to 4 at the final concentration of 10 mg/mL. […] In the evaluation, samples were collected at the time of preparation of the peptide solution, after 24 hours, and after 48 hours, and stored at −20° C. The peptide concentration was measured by HPLC after all the samples were collected, and compared with the peptide concentration at the time of preparation (T=0).

[3] = Example 1: peptide cocktail preparation standing at room temperature for 6 hours; settings: for HPLC analysis: peptide concentration: in peptide cocktail preparation of Example 1 (with GM-CSF); for HPLC analysis: % vs T0: in peptide cocktail preparation of Example 1, T = 6 hours
Protocol: Using the lyophilized peptide preparations produced in Preparation Example 1, a peptide cocktail preparation to be administered was prepared as follows. First, 1 mL of purified water was added to each lyophilized peptide preparation, and the lyophilized product in the vial was dissolved to prepare a peptide solution. All the peptide solutions were collected from the respective vials and transferred to a different vial to provide a peptide cocktail preparation. Also, a GM-CSF lyophilized preparation (product name: Lukine ([…]), Sanofi) was dissolved in 1 mL of purified water and 0.6 mL of the solution thus obtained was added as an adjuvant to 1.4 mL of the peptide cocktail preparation to provide a peptide cocktail preparation to be administered. Then, the peptide cocktail preparation thus obtained was allowed to stand at room temperature for 6 hours, and evaluated for changes in peptide concentration, pH (25° C.), and osmotic pressure compared with those before standing.

[4] = Preparation Example 2: stability of lyophilized peptide cocktail preparation; settings: T = 1 (1 month at 25° C., humidity 60%)
Protocol: To produce a lyophilized peptide cocktail preparation and confirm the stability of the preparation, 500 mL of a peptide cocktail preparation was prepared in the same manner as in Example 1, and then the preparation was aseptically filled to a glass vial at 1 mL per vial and lyophilized to provide a lyophilized peptide cocktail preparation. Then, immediately after the preparation (T=0) or after storage at room temperature (25° C., humidity 60%) for 1 month from the preparation (T=1), 1 mL of purified water was added to the lyophilized preparation to dissolve the peptides. Appearance, solubility, peptide stability, and pH were evaluated.

[5] = Test Example 2: solubility of SEQ ID NO: 1 in glycine-HCl buffers; settings: for result (solubility): 270 mM trehalose, 24 hours
Protocol: The solubility of the peptide drug substance of SEQ ID NO: 1 (purity 95 w/w % or more, PPL) was examined as described below. First, 10 to 500 mM glycine-HCl buffers containing 270 mM trehalose from pH 2.5 to 3.5 were prepared, and the peptide drug substance was added to 2 mL of each buffer so that the peptide concentration was 10 to 25 mg/mL.

Compound	% difference vs T = 0 ([2]; T = 24 h, 25° C./60% RH)	Conc. ([2]; T = 24 h, 25° C./60% RH)	% difference vs T = 0 ([2]; T = 24 h, 40° C./75% RH)	Conc. ([2]; T = 24 h, 40° C./75% RH)	% difference vs T = 0 ([2]; T = 48 h, 25° C./60% RH)	Conc. ([2]; T = 48 h, 25° C./60% RH)	% difference vs T = 0 ([2]; T = 48 h, 40° C./75% RH)	Conc. ([2]; T = 48 h, 40° C./75% RH)	T0 Conc. [2]	HPLC analysis: peptide concentration ([3]; T = 0 hour)	HPLC analysis: peptide concentration ([3]; T = 6 hours, room temperature)	HPLC analysis: % vs T0 ([3]; room temperature)	change in peptide amount % vs T = 0 (100%) (HPLC analysis) [4]	also measured
LLQAEAPRL [SEQ ID NO: 4]	−1%	10470 µg/mL	1%	10680 µg/mL	−4%	10160 µg/mL	−1%	10470 µg/mL	10.61 mg/mL	SEQ ID NO: 4: 2.8 mg/mL	3.0 mg/mL	106.4%	SEQ ID NO: 4: 101.2%	result (whether peptide drug substance was dissolved) ([1]; 10 mM Citrate pH 3.0, 270 mM trehalose, final conc. 20 mg/mL): dissolved; result (whether peptide drug substance was dissolved) ([1]; 10 mM Citrate pH 3.5, 270 mM trehalose, final conc. 20 mg/mL): dissolved; result (whether peptide drug substance was dissolved) ([1]; 10 mM Citrate pH 4.0, 270 mM trehalose, final conc. 28.6 mg/mL): dissolved; result (whether peptide drug substance was dissolved) ([1]; 10 mM Citrate pH 5.0, 270 mM trehalose, final conc. 20 mg/mL): dissolved; result (whether peptide drug substance was dissolved) ([1]; 10 mM Citrate pH 6.0, 270 mM trehalose, final conc. 28.6 mg/mL): dissolved; result (whether peptide drug substance was dissolved) ([1]; 10 mM Phosphate pH 7.0, 270 mM trehalose, final conc. 25 mg/mL): dissolved; result (whether peptide drug substance was dissolved) ([1]; 10 mM Phosphate pH 7.5, 270 mM trehalose, final conc. 25 mg/mL): dissolved; result (whether peptide drug substance was dissolved) ([1]; 10 mM Phosphate pH 8.0, 270 mM trehalose, final conc. 25 mg/mL): dissolved
Ala-Ser-Leu-Asp-Ser-Asp-Pro-Trp-Val (ASLDSDPWV) [SEQ ID NO: 2]	0%	10850 µg/mL	−6%	10240 µg/mL	−5%	10370 µg/mL	−20%	8760 µg/mL	10.89 mg/mL	SEQ ID NO: 2: 2.7 mg/mL	2.8 mg/mL	107.0%	SEQ ID NO: 2: 100.4%	result (whether peptide drug substance was dissolved) ([1]; 10 mM Citrate pH 3.0, 270 mM trehalose, final conc. 66.67 mg/mL): dissolved; result (whether peptide drug substance was dissolved) ([1]; 10 mM Citrate pH 3.5, 270 mM trehalose, final conc. 66.67 mg/mL): dissolved; result (whether peptide drug substance was dissolved) ([1]; 10 mM Citrate pH 4.0, 270 mM trehalose, final conc. 100 mg/mL): dissolved; result (whether peptide drug substance was dissolved) ([1]; 10 mM Citrate pH 5.0, 270 mM trehalose, final conc. 100 mg/mL): dissolved; result (whether peptide drug substance was dissolved) ([1]; 10 mM Citrate pH 6.0, 270 mM trehalose, final conc. 100 mg/mL): dissolved; result (whether peptide drug substance was dissolved) ([1]; 10 mM Phosphate pH 7.0, 270 mM trehalose, final conc. 100 mg/mL): dissolved; result (whether peptide drug substance was dissolved) ([1]; 10 mM Phosphate pH 7.5, 270 mM trehalose, final conc. 100 mg/mL): dissolved; result (whether peptide drug substance was dissolved) ([1]; 10 mM Phosphate pH 8.0, 270 mM trehalose, final conc. 100 mg/mL): dissolved; degraded ([2]; stored at 75% humidity for 48 hours): 20%
KLKHYGPGWV [SEQ ID NO: 3]	2%	11420 µg/mL	4%	11700 µg/mL	4%	11630 µg/mL	4%	11740 µg/mL	11.23 mg/mL	SEQ ID NO: 3: 2.5 mg/mL	2.7 mg/mL	107.7%	SEQ ID NO: 3: 104.5%	result (whether peptide drug substance was dissolved) ([1]; 10 mM Citrate pH 3.0, 270 mM trehalose, final conc. 200 mg/mL): dissolved; result (whether peptide drug substance was dissolved) ([1]; 10 mM Citrate pH 3.5, 270 mM trehalose, final conc. 200 mg/mL): dissolved; result (whether peptide drug substance was dissolved) ([1]; 10 mM Citrate pH 4.0, 270 mM trehalose, final conc. 200 mg/mL): dissolved; result (whether peptide drug substance was dissolved) ([1]; 10 mM Citrate pH 5.0, 270 mM trehalose, final conc. 200 mg/mL): dissolved; result (whether peptide drug substance was dissolved) ([1]; 10 mM Citrate pH 6.0, 270 mM trehalose, final conc. 200 mg/mL): dissolved; result (whether peptide drug substance was dissolved) ([1]; 10 mM Phosphate pH 7.0, 270 mM trehalose, final conc. 200 mg/mL): dissolved; result (whether peptide drug substance was dissolved) ([1]; 10 mM Phosphate pH 7.5, 270 mM trehalose, final conc. 200 mg/mL): dissolved; result (whether peptide drug substance was dissolved) ([1]; 10 mM Phosphate pH 8.0, 270 mM trehalose, final conc. 200 mg/mL): dissolved
CC(C)C[C@H](NC(=O)[C@@H]1CCCN1C(=O)[C@H](C)NC(=O)[C@H](CC(N)=O)NC(=O)[C@H](Cc1ccccc1)NC(=O)[C@H](Cc1ccccc1)NC(=O)[C@H](Cc1c[nH]cn1)NC(=O)[C@H](CC(C)C)NC(=O)[C@@H](NC(=O)[C@@H](N)CC(N)=O)C(C)C)C(=O)O [SEQ ID NO: 1, Asn-Val-Leu-His-Phe-Phe-Asn-Ala-Pro-Leu] (H-NVLHFFNAPL-OH; N-terminus and C-terminus assumed)	–	–	–	–	–	–	–	–	–	–	–	–	–	solubility (summary of Table 1) ([1]; any of the conditions (pH 3.0 to 8.0), final concentration of 20 mg/mL): could not be dissolved; result (solubility) ([5]; glycine-HCl buffer pH 2.5, glycine 10 mM (0.75 mg/mL), final conc. of peptide 20 mg/mL, mass ratio peptide/glycine 26.67): dissolved; result (solubility) ([5]; glycine-HCl buffer pH 3, glycine 10 mM (0.75 mg/mL), final conc. of peptide 20 mg/mL, mass ratio 26.67): dissolved; result (solubility) ([5]; glycine-HCl buffer pH 3.5, glycine 10 mM (0.75 mg/mL), final conc. of peptide 20 mg/mL, mass ratio 26.67): dissolved; result (solubility) ([5]; glycine-HCl buffer pH 3.5, glycine 50 mM (3.75 mg/mL), final conc. of peptide 10 mg/mL, mass ratio 2.67): dissolved; result (solubility) ([5]; glycine-HCl buffer pH 3.5, glycine 50 mM (3.75 mg/mL), final conc. of peptide 25 mg/mL, mass ratio 6.67): white turbid; result (solubility) ([5]; glycine-HCl buffer pH 3.5, glycine 100 mM (7.5 mg/mL), final conc. of peptide 10 mg/mL, mass ratio 1.33): dissolved; result (solubility) ([5]; glycine-HCl buffer pH 3.5, glycine 100 mM (7.5 mg/mL), final conc. of peptide 25 mg/mL, mass ratio 3.33): white turbid; result (solubility) ([5]; glycine-HCl buffer pH 3.5, glycine 200 mM (15 mg/mL), final conc. of peptide 10 mg/mL, mass ratio 0.67): dissolved; result (solubility) ([5]; glycine-HCl buffer pH 3.5, glycine 300 mM (22.5 mg/mL), final conc. of peptide 10 mg/mL, mass ratio 0.44): dissolved; result (solubility) ([5]; glycine-HCl buffer pH 3.5, glycine 500 mM (37.5 mg/mL), final conc. of peptide 25 mg/mL, mass ratio 0.67): white turbid; solubility (summary of Table 2) ([5]; peptide concentration of 25 mg/mL, even when glycine concentration was 500 mM): could not be dissolved; stability / precipitation in the cocktail preparation ([3]; pH 4.9): stable without precipitation

Reference: US20230321241A1, “CANCER PEPTIDE VACCINE AND METHOD OF PREPARING THE SAME” (BrightPath Biotherapeutics Co., Ltd., priority 2020, published 2023)
